{
  "source": "paper PMC11423790",
  "about": "“Structural Insights into the Diversity and DNA Cleavage Mechanism of Fanzor”",
  "settings_in_all_cases": "protein: recombinant; tags: 10xHis-MBP N-terminal; blunt DNA 54 bp; R-loop",
  "key": {"SpuFz1 [1]": {"target": "T1, SpuFz1 (Spizellomyces punctatus ATCC 48900, UniProt A0A0L0H5U9 1-622)", "T1 sequence (A0A0L0H5U9 entry or part of it)": "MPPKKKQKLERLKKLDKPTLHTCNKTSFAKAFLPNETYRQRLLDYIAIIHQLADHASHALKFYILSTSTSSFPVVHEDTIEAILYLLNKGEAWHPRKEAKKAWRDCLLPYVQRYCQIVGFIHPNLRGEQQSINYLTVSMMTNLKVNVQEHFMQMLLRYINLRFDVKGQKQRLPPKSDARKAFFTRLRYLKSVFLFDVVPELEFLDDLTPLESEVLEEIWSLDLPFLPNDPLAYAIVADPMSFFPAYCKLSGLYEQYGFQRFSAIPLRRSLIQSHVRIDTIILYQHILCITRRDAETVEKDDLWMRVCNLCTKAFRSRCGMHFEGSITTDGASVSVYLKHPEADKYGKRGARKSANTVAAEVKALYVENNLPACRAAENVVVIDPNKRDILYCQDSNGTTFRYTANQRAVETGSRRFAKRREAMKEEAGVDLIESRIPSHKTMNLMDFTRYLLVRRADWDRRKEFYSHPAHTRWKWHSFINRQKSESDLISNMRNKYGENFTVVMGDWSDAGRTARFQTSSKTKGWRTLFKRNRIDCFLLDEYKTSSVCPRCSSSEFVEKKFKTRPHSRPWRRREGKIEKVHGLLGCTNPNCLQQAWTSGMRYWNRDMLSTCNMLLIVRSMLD", "assay": "cryo-EM structure; State I, 8-bp heteroduplex; RNP purification buffer 20 mM HEPES pH 7.5, 150 mM NaCl, 2 mM MgCl2, 4.5 mM TCEP, 4 C; ternary complex assembly conditions not in the material"}, "SpuFz1 [2]": {"target": "T1, SpuFz1", "assay": "cryo-EM structure; State VI, 15-bp heteroduplex, weak lid density; RNP purification buffer 20 mM HEPES pH 7.5, 150 mM NaCl, 2 mM MgCl2, 4.5 mM TCEP, 4 C; ternary complex assembly conditions not in the material"}, "SpuFz1 [3]": {"target": "T1, SpuFz1", "assay": "cryo-EM structure; State IV, dsDNA unwound on RuvC; RNP purification buffer 20 mM HEPES pH 7.5, 150 mM NaCl, 2 mM MgCl2, 4.5 mM TCEP, 4 C; ternary complex assembly conditions not in the material"}, "SpuFz1 [4]": {"target": "T1, SpuFz1", "assay": "cryo-EM structure; State V, 15-bp heteroduplex, lid down; RNP purification buffer 20 mM HEPES pH 7.5, 150 mM NaCl, 2 mM MgCl2, 4.5 mM TCEP, 4 C; ternary complex assembly conditions not in the material"}},
  "data": [
    {"binder": "SpuFz1 omegaRNA + ds2 (mixed, phosphorothioates, TS partially modified, NTS unmodified) RNA: GUUUUCCGAGCCGGUUGUCGCGCGGUUCAAUCCCUGGUGCGGGUGCUAGUGCCAAUACCCACCGGCUCCGCACUAUCUAUAGGUUAUGA DNA 1: ATTCGAGCTCGGTACCCGGGCATATCTATAGGTTATGAAATCAAATTACAAATA DNA 2: TATTTGTAATTTGATTTCATAACCTATAGATATGCCCGGGTACCGAGCTCGAAT", "values": [
      {"measurement": "binding result", "setting": "SpuFz1 [1]", "result": "binds"}
    ]},
    {"binder": "SpuFz1 omegaRNA + ds6 (mixed, phosphorothioates, NTS fully modified, TS unmodified) RNA: GUUUUCCGAGCCGGUUGUCGCGCGGUUCAAUCCCUGGUGCGGGUGCUAGUGCCAAUACCCACCGGCUCCGCACUAUCUAUAGGUUAUGA DNA 1: ATTCGAGCTCGGTACCCGGGCATATCTATAGGTTATGAAATCAAATTACAAATA DNA 2: TATTTGTAATTTGATTTCATAACCTATAGATATGCCCGGGTACCGAGCTCGAAT", "values": [
      {"measurement": "binding result", "setting": "SpuFz1 [2]", "result": "binds"}
    ]},
    {"binder": "SpuFz1 omegaRNA + ds3 (mixed, phosphorothioates, NTS partially modified, TS unmodified) RNA: GUUUUCCGAGCCGGUUGUCGCGCGGUUCAAUCCCUGGUGCGGGUGCUAGUGCCAAUACCCACCGGCUCCGCACUAUCUAUAGGUUAUGA DNA 1: ATTCGAGCTCGGTACCCGGGCATATCTATAGGTTATGAAATCAAATTACAAATA DNA 2: TATTTGTAATTTGATTTCATAACCTATAGATATGCCCGGGTACCGAGCTCGAAT", "values": [
      {"measurement": "binding result", "setting": "SpuFz1 [3]", "result": "binds"}
    ]},
    {"binder": "SpuFz1 omegaRNA + ds5 (mixed, phosphorothioates, TS fully modified, NTS unmodified) RNA: GUUUUCCGAGCCGGUUGUCGCGCGGUUCAAUCCCUGGUGCGGGUGCUAGUGCCAAUACCCACCGGCUCCGCACUAUCUAUAGGUUAUGA DNA 1: ATTCGAGCTCGGTACCCGGGCATATCTATAGGTTATGAAATCAAATTACAAATA DNA 2: TATTTGTAATTTGATTTCATAACCTATAGATATGCCCGGGTACCGAGCTCGAAT", "values": [
      {"measurement": "binding result", "setting": "SpuFz1 [4]", "result": "binds"}
    ]}
  ]
}
